Experimental findings from US20250297032A1 (CONCEPT TO MEDICINE BIOTECH, published 2025) are described below.

For one assay, the target named is T1, mouse FAPα-His protein (mouse, UniProt P97321 26-761, limits assumed).
T1 construct: not shown: His tag
T1 sequence (looked up): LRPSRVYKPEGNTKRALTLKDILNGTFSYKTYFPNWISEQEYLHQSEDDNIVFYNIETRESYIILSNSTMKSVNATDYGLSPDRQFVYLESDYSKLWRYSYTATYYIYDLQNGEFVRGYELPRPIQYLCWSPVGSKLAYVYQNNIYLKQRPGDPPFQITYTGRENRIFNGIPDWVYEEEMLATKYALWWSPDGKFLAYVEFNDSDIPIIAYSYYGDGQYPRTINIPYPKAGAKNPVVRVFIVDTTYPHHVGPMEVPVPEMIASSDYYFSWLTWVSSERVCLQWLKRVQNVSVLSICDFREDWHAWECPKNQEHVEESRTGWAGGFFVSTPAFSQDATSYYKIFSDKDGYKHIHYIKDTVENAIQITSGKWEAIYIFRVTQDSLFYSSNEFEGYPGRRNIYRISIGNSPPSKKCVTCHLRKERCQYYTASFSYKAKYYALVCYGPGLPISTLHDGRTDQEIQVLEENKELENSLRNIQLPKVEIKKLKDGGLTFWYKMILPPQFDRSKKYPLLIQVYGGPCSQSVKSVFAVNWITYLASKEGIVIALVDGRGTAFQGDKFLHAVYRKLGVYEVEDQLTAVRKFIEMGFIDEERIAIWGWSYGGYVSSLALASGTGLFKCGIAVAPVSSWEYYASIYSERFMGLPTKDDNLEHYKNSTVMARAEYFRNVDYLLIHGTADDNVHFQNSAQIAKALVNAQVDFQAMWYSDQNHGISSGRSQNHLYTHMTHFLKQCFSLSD
The assay is described as follows: ELISA, plate coated with mouse FAPα-His, anti-human IgG-HRP, OD 450 nm. As to the method:
Briefly, microtiter plates were coated with mouse FAPα-His protein at 0.5 ug/ml in PBS, 100 μl/well at 4° C. overnight, then blocked with 150 μl/well of 1% BSA. Three-fold dilutions of tested antibodies starting from 1 μg/ml were added to each well and incubated for 1 hour at 37° C. The plates were washed with PBS/Tween and then incubated with Anti-Human IgG (H&L) (GOAT) Antibody Peroxidase Conjugated for 30 mins at 37° C. After washing, the plates were developed with TMB substrate and analyzed by spectrophotometer at OD 450 nm.

The target of assay [1] is T2, human FAPα-His tag (Sino biological) (human, UniProt Q12884 26-760).
T2 construct: Bought protein; also called human FAPα-His protein; not shown: His tag
T2 sequence (looked up): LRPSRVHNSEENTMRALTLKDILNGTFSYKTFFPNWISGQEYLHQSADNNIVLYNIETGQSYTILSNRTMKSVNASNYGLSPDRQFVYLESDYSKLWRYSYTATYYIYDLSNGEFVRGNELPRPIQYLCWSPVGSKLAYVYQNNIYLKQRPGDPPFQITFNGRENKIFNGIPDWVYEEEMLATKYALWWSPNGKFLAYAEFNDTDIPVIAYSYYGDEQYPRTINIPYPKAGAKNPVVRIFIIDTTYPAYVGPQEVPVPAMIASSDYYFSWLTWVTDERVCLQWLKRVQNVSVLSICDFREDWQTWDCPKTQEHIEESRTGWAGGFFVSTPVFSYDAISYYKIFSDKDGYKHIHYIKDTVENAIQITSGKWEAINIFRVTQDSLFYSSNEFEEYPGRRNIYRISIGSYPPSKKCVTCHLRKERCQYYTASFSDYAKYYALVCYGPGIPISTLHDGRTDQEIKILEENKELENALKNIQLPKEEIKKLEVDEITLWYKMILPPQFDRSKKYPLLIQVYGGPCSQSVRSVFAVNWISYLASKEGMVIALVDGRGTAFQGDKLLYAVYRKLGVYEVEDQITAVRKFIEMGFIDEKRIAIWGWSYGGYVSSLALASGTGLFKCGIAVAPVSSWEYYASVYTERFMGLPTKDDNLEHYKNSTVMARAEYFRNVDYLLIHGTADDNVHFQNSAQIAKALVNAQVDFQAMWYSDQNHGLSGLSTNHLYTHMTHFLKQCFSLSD
Nature of the assay: competitive ELISA on coated human FAPα; competitor (detected): FAP-G14-Bio. As for the experimental part:
Competitive ELISA was carried out to classify the FAPα mAbs based on the binding epitope to human FAPα.
Briefly, microtiter plates were coated with human FAPα proteins at 0.5 μg/ml in PBS, 100 μl/well at 4° C. overnight, then blocked with 150 μl/well of 1% BSA. Serial dilutions of chimeric antibodies as well as biotin-conjugated reference mAb were added to each well and incubated for 1 hour at RT. The plates were washed with PBS/Tween and then incubate with streptavidin-HRP for 15 mins at RT. After washing, the plates were developed with TMB substrate and analyzed by spectrophotometer at OD 450 nm. According to the competition ability to reference mAbs (Benchmark, or “BMK”), all tested FAPα mAbs binds to the similar epitope as shown in Table 5.
(In general: An ELISA detects its analyte on a solid surface through an enzyme-linked reagent.)

B1: G14 (antibody, V domains shown)
VH: QVQLLESGGGVVQPGRSLRLSCAASGFTFSSYAMHWVRQAPGKGLEWVAFISHDGNRNSYADSVRGRFTISRDNSKNTLYLQMNSLRAEDTAVYYCARDLGYYNGFSYWGQGTLVTVSA
VL: DIVMTQSPSSVSASVGDRVTITCRASQGISSWLAWYQQKPGKAPKLLIYAASSLQSGVPSRFSGSGSGTDFTLTISSLQPEDFATYYCQQANSFPPTFGPGTKVDIK
notes: Full human antibody from a Fab phage library; Tested as a mAb (detected with anti-human IgG, captured on Protein A); also called FAP-G14; FAP-G14-Bio (biotin-conjugated form)
In the case of B1, the binding result with mouse FAPα-His protein was “no binding (tested: 1000 ng/ml)”. Besides, the “OD 450 nm” value in assay [1] turned out to be 0.209 OD 450 nm.

B2: I37 (antibody, V domains shown)
VH: QLQLVESGGGLVQPGGSLRLSCAASGFTFSSYAMSWVRQAPGKGLEWVSAISGSGGSTYYADSVKGRFTISRDNSKNTLYLQMNSLRAEDTAVYYCARDKPWGGSFDYWGQGTLVTVSA
VL: DIQLTQSPSSLSASVGDRVTITCRASQGISSWLAWYQQKPGKAPKLLIYAASSLQSGVPSRFSGSGSGTDFTLTISSLQPEDFATYYCQQANSFPVTFGPGTKVDIK
notes: Tested as a mAb; also called FAP-I37
B2: the “OD 450 nm” value in assay [1] worked out at 0.224 OD 450 nm.

B3: I30 (antibody, V domains shown)
VH: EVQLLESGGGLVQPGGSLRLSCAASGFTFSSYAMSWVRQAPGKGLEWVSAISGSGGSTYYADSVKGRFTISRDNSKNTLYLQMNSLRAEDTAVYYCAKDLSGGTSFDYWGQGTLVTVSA
VL: AIRLTQSPSSVSASVGDRVTITCRASQGISSWLAWYQQKPGKAPKLLIYAASSLQSGVPSRFSGSGSGTDFTLTISSLQPEDFATYYCQQANSFPPTFGGGTKVEIK
notes: Tested as a mAb; also called 130; FAP-I30
In the case of B3, the binding result with mouse FAPα-His protein is recorded as “no binding (tested: 1000 ng/ml)”. Besides, in assay [1], the “OD 450 nm” value turned out to be 0.129 OD 450 nm.

B4: J40 (antibody, V domains shown)
VH: EVQLLESGGGLVQPGGSLRLSCAASGFTFSSYAMSWVRQAPGKGLEWVSAISGSGGSTYYADSVKGRFTISRDNSKNTLYLQMNSLRTDDTAVYYCARDLTTSTGWESWGQGTLVTVSA
VL: NIQMTQSPSSVSASVGDRVTITCRASQGISSWLAWYQQKPGKAPKLLIYAASSLQSGVPSRFSGSGSGTDFTLTISSLQPEDFATYYCQQANSFPPTFGQGTKLEIK
notes: Tested as a mAb; also called FAP-J40; FAP-J40-Bio (biotin-conjugated form)
On to B4, for which the binding result with mouse FAPα-His protein is on record as “no binding (tested: 1000 ng/ml)”. Further, in assay [1], the “OD 450 nm” value is 0.167 OD 450 nm.
